T1: TGF-beta 3 (human, UniProt P10600 301-412)
T1 construct: Bought protein; also called TGF-β3
T1 sequence (looked up): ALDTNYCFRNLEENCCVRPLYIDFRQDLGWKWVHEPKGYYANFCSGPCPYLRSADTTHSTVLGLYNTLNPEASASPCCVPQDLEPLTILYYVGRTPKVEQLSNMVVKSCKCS


target: T1, TGF-beta 3; assay: ratio of Biacore Kd for TGF-β3 to Kd for TGF-β1
Experimental: Affinities of binding composition mAbs for TGF-β3 are determined using BIAcore methods. All measurements are performed at room temperature. Samples are dissolved in HBS-EP buffer (150 mM sodium chloride, 3 mM EDTA, 0.01% (w/v) surfactant P-20, and 10 mM HEPES, pH 7.4). Recombinant Protein A is immobilized on four flow cells of a CM4 sensor chip at a level of 400-450 response units (RUs) using an amine coupling kit. Binding is evaluated over multiple analytical cycles. Each cycle is performed at a flow rate of 100 μL/minute consisting of the following steps: injection of 15 μL of an antibody binding composition at 0.5 μg/mL, injection of 250 μL of TGF-β3 (starting at 5 nM and using two-fold serial dilutions to […] for each cycle, with two injections for each concentration) followed by a short (5 minutes) delay for dissociation, and regeneration using two injections of 50 μL of 10 mM glycine hydrochloride, pH 1.5.
Affinities are determined based upon the equilibrium signal as reached at varying TGF-β3 concentrations by measuring the average signal during the last 10 seconds of the TGF-β3 injections, and then fitting the resulting signals at all of the TGF-β3 concentrations to a simple binding equilibrium model in SCRUBBER (Center for Biomolecular Interaction Analysis, Univ. of Utah). Model data determined for tested human mab composition of the invention of Kd and specificity calculated by dividing the Kd for TGF-β3 binding by the Kd for TGF-β1 binding (herein) is shown below in Table 5.

Specificity (Kd, β3/Kd, β1) | Binder
9800 | mAb 21D1 (antibody, human IgG4 S228P, kappa, V domains shown, Full-length IgG4 antibody; also called LA307-21D1) VH: QVQLVQSGAEVKKPGASVKVSCKASGYTFTDYNIHWVRQAPGQGLEWMGYIYPYDGETGYNQKFKSRVTMTTDTSTSTAYMELRSLRSDDTAVYYCARGYRWFAYWGQGTLVTVSS VL: DIQMTQSPSSLSASVGDRVTITCRASSSVPYMHWFQQKPGKAPKSLIYATSNPAYGVPSRFSGSGSGTDFTLTISSLQPEDFATYYCQQWDLNPPAFGQGTKLEIKR
621 | mAb DM4 (antibody, human IgG4 S228P, kappa, V domains shown, Full-length IgG4 antibody; also called LA307-DM4) VH: QVQLVQSGAEVKKPGASVKVSCKASGYDFTDYNIHWVRQAPGQGLEWMGYIYPYDGETGYNQKFKSRVTMTTDTSTSTAYMELRSLRSDDTAVYYCARGYRWLAYWGQGTLVTVSS VL: DIQMTQSPSSLSASVGDRVTITCRASSSVSYMHWYQQKPGKAPKPLIYATSNLAYGVPSRFSGSGSGTDFTLTISSLQPEDFATYYCQQWDLNPPAFGQGTKLEIKR
1050 | mAb 23A3 (antibody, V domains shown) VH: QVQLVQSGAEVKKPGASVKVSCKASGYDFTDYNMVWVRQAPGQGLEWMGSIYPYDGETGYNQKFKSRVTMTTDTSTSTAYMELRSLRSDDTAVYYCARGYRAFEYWGQGTLVTVSS VL: DIQMTQSPSSLSASVGDRVTITCRASSSVPYMHWYQQKPGKAPKLLIYATSNPAYGVPSRFSGSGSGTDFTLTISSLQPEDFATYYCQQWDLNPPAFGQGTKLEIK
2320 | mAb DM7 (antibody, V domains shown) VH: QVQLVQSGAEVKKPGASVKVSCKASGYDFTDYNMHWVRQAPGQGLEWMGYIYPYDGETGYNQKFKSRVTMTTDTSTSTAYMELRSLRSDDTAVYYCARGYRWLYYWGQGTLVTVSS VL: DIQMTQSPSSLSASVGDRVTITCRASSSVSYMHWYQQKPGKAPKPLIYATSNLAKGVPSRFSGSGSGTDFTLTISSLQPEDFATYYCQQWDLNPPAFGQGTKLEIK
